The results in this text go back to patent US20250304677A1 (VIB VZW, published 2025).

Assay [1] deals with T1, human folate receptor alpha (hFRα), recombinant protein (human, UniProt P15328 25-233).
T1 construct: Bought recombinant proteins (His-tagged, or biotinylated via Avi-tag, e.g. AcroBiosystems FO1-H82E2, F01-H52H1); also called hFOLR1; huFOLR1
Nature of the assay: ELISA on recombinant human FOLR1, cMyc tag detection, normalised binding, non-linear fit. As to the method: (§1) Data were normalized and technical replicates were plotted as mean±SD. Data were fitted by non-linear regression and the half-maximal effective concentration ^{∘}EC50) was calculated using GraphPad Prism 9 software. ^{∘}FIG. 1C and FIG. 1D) Binding affinity determination of anti-FOLR1 VHHs for native FOLR1. Mouse ^{∘}FIG. 1C) or human FOLR1 FIG. 1D) was overexpressed on HEK293T cells and binding of the anti-FOLR1 VHHs was assessed using flow cytometry. The mean fluorescence intensity ^{∘}MFI) of the phycoerythrin signal was plotted for each VHH concentration. Data were fitted by non-linear regression using GraphPad Prism 9 software. ^{∘}FIG. 1E) Determination of the competition of representative family members with folic acid ^{∘}FA) using ELISA. Mouse FOLR1 was coated on the plate and was pre-incubated with or without 100 μM FA before adding the VHHs. Data were fitted by non-linear regression using GraphPad Prism 9 software.
(§2) In a first step, binding affinity and cross-reactivity of the purified VHHs to human and mouse FRα was assessed by ELISA, using detection of the cMyc tag ^{∘}FIG. 1A-B). […] 2HFO19 ^{∘}family 1) was the best binder of all tested VHHs to both mouse and human FRα with an EC₅₀ of 0.1 nM and 0.4 nM respectively ^{∘}FIG. 1A-B).

Assay [2] has as its target T2, mouse folate receptor alpha (mFRα), recombinant protein (mouse, UniProt P35846 25-232).
T2 construct: Bought recombinant proteins (e.g. biotinylated, Acro Biosystems FO1-M82E9); also called mFOLR1; Ms FOLR1
In words: ELISA on recombinant mouse FOLR1, cMyc tag detection, normalised binding, non-linear fit. The method, then: as §1, §2
(In general: ELISA stands for enzyme-linked immunosorbent assay.)

Assay [3] addresses T2, mouse folate receptor alpha (mFRα), …. In words: BLI, periplasmic extract, FRα on AR2G biosensors. The method, then:
(§3) After panning of core76/77 on human and mouse folate receptor alpha ^{∘}FRα), […] were randomly selected from the second and third rounds and analyzed by ELISA on both human and mouse FRα for the presence of FRα-specific VHHs in their periplasmic extracts ^{∘}PE). This led to the identification of 98 hits. For these 98 hits, the off-rate ^{∘}koff) in the PE was determined by biolayer interferometry ^{∘}BLI) on both mouse and human FRα that was directly immobilized onto AR2G biosensors. The off-rates were calculated using a 1:1 binding model. […] Abbreviations: SE: standard error.
In general terms: BLI is a label-free optical method that tracks binding on a fibre tip over time.

Assay [4] deals with T1, human folate receptor alpha (hFRα), …. Nature of the assay: BLI, periplasmic extract, FRα on AR2G biosensors. As to the method: as §3
Assay [5] addresses T2, mouse folate receptor alpha (mFRα), …. In words: BLI, FRα on AR2G biosensors, 1:1 model. As to the method: (§4) As a next step, the kinetic binding constants were determined using BLI ^{∘}Table 3). […] Similar to the ELISA results ^{∘}FIG. 1A-B), higher binding affinities were measured for mouse FRα than human FRα, with KD values […] one order of magnitude in most cases. […] For 3HFO28, binding to human FRα could not be confirmed by BLI, and this VHH was excluded from further characterization.
(§5) The kinetic parameters were calculated using a 1:1 binding model.

Assay [6] concerns the target T1, human folate receptor alpha (hFRα), …. In words: BLI, FRα on AR2G biosensors, 1:1 model. As to the method: as §4, §5
Assay [7] addresses T3, mouse folate receptor alpha expressed on transfected HEK293T cells (mouse, UniProt P35846 25-232).
T3 construct: also called cell-expressed mouse FRα
In words: flow cytometry on HEK293T cells overexpressing mouse FOLR1, His tag detection, PE MFI, non-linear fit. As to the method: as §1
Background: Flow cytometry measures light scatter and fluorescence of single cells or particles in a stream.

Assay [8] deals with T4, human folate receptor alpha expressed on cells (transfected HEK293T, HeLa, MCF7, MDA-MB-231) (human, UniProt P15328 25-234).
T4 construct: HEK293T transiently transfected with human FOLR1; also called native human FRα; cell-expressed human FOLR1
Nature of the assay: flow cytometry on HEK293T cells overexpressing human FOLR1, His tag detection, PE MFI, non-linear fit. As to the method:
as §1

Assay [9] deals with T2, mouse folate receptor alpha (mFRα), …. In words: ELISA, periplasmic extract.
From the text: (§6) From the lymphocytes of each llama a separate VHH library was constructed to select and screen for the presence of antigen-specific VHHs. To this end, total RNA from peripheral blood lymphocytes was used as template for first strand cDNA synthesis with an oligo ^{∘}dT) primer. Using this cDNA, the VHH encoding sequences were amplified by PCR, digested with PstI and NotI, cloned into the PstI and NotI sites of the phagemid vector pMECS and transformed into E. coli to generate VHH libraries. To enrich these libraries for FRα ^{∘}or FOLR1, as used interchangeably herein)-specific VHHs, a combinatorial panning approach on recombinant human and mouse FOLR1 was used followed by random selection and screening of clones by ELISA for the presence of antigen-specific VHHs in their periplasmic extracts ^{∘}PEs). In order to gauge the cross-reactivity for human and mouse FOLR1, each clone was tested on both antigens.
as §3

The target in assay [10] is T1, human folate receptor alpha (hFRα), …. Nature of the assay: ELISA, periplasmic extract.
From the text: as §6, §3

Assay [11] addresses T5, human folate receptor beta (FRβ) (human, UniProt P14207 17-230, limits assumed).
T5 construct: also called hFOLR2; human FOLR2
Nature of the assay: method not named (follows the ELISA of Example 3).

T2 sequence (P35846 25-232 limits assumed): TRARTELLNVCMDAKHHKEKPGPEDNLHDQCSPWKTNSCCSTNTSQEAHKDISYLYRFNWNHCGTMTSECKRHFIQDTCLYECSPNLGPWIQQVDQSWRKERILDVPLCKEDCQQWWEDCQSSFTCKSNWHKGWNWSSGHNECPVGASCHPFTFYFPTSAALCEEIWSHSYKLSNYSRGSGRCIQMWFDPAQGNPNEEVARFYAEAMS
T1 sequence (P15328 25-233 limits assumed): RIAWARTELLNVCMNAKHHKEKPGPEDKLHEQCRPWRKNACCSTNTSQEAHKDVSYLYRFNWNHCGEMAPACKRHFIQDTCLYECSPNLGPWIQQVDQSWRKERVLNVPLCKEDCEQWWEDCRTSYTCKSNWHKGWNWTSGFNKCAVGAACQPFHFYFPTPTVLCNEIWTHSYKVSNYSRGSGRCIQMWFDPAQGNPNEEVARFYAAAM
T3 sequence (P35846 25-232 limits assumed): as the sequence (P35846 25-232 limits assumed) above
T4 sequence (P15328 25-234 limits assumed): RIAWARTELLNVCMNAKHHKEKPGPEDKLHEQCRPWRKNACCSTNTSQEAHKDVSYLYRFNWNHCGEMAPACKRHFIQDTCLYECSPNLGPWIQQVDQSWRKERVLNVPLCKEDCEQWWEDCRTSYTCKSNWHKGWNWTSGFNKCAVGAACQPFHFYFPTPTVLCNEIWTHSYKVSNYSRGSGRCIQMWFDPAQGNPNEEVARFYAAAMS
T5 sequence (P14207 17-230 limits assumed): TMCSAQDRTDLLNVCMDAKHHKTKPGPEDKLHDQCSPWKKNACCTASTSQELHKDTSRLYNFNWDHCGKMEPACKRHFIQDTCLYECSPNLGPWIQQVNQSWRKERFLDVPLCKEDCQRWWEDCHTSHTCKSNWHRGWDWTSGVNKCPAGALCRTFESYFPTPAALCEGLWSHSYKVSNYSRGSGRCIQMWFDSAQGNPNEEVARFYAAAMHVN

B1: VHH 2MFR7 (family 1) (VHH)
VHH: QVQLQESGGGLVQPGGSLRLSCAASGFPFSTYYMSWVRQAPGKGLEWVSGINSNGGVIDYADSVKGRFTISRDNAKNTLYLQLNSLKPEDTALYFCARGRAFVATMPSSLRGQGTQVTVSS
notes: also called 2MFRO7
As to B1, the EC50 in assay [1] turned out to be 11.6 nM; in assay [2], 0.6 nM; in assay [7], 1.5 nM; in assay [8], 20.2 nM. In addition, the koff worked out at 0.0542 s⁻¹ in assay [3], 0.108 s⁻¹ in assay [4], 0.0527 s⁻¹ in assay [5] and 0.0849 s⁻¹ in [6]. Further, the Kd in assay [5] is 16.7 nM; in assay [6], 70.9 nM. In addition, the kon in [5] came out at 3.15e+06 M⁻¹ s⁻¹; in [6], 1.2e+06 M⁻¹ s⁻¹. Moreover, the “PE-ELISA (ratio to uncoated well)” value in [9] is 14.1; in assay [10], 12.4. Also, in [11], the binding result is “no binding”.

B2: VHH 3HFO26 (family 1) (VHH)
VHH: QVQLQESGGGLVQPGGSLRITCVASGFPFSTYYMSWVRQAPGKGLEWVSGINSNGGVIDYADSVKGRFTISRDNAKNTLYLQLNSLKPEDTALYFCARGRAFVATMPSSLRGQGTQVTVSS
Turning to B2, the EC50 amounted to 20.3 nM in [1], 0.3 nM in assay [2], 1.4 nM in assay [7] and 7 nM in assay [8]. Moreover, the koff came out at 0.0135 s⁻¹ in assay [3], 0.0582 s⁻¹ in assay [4], 0.0197 s⁻¹ in assay [5] and 0.182 s⁻¹ in assay [6]. Also, the Kd was 7.86 nM in [5] and 662 nM in assay [6]. Moreover, the kon in assay [5] came out at 2.5e+06 M⁻¹ s⁻¹; in [6], 275000 M⁻¹ s⁻¹. For the same molecule, the “PE-ELISA (ratio to uncoated well)” value is 4.9 in [9] and 4.8 in assay [10]. Moreover, the binding result in assay [11] is given as “no binding”.

In general, EC50 refers to the concentration needed to bring the measured effect to its halfway point. What is called koff is the first-order rate constant of dissociation. The term Kd denotes the constant that tells how readily two partners part at equilibrium. In general, kon refers to the rate constant with which the complex forms.
